# In US20220119490A1 (Genentech, published 2022):
# Residue numbers refer to the chain shown, from its start.
# T1: PTPRD extracellular domain (wild type) (human, UniProt P23468 21-1265)
# T1 construct: extracellular domain; Ectodomain-Fc in SPR; also called wt PTPRD; PTPRD ectodomain fused to an Fc tag
# T1 sequence (looked up): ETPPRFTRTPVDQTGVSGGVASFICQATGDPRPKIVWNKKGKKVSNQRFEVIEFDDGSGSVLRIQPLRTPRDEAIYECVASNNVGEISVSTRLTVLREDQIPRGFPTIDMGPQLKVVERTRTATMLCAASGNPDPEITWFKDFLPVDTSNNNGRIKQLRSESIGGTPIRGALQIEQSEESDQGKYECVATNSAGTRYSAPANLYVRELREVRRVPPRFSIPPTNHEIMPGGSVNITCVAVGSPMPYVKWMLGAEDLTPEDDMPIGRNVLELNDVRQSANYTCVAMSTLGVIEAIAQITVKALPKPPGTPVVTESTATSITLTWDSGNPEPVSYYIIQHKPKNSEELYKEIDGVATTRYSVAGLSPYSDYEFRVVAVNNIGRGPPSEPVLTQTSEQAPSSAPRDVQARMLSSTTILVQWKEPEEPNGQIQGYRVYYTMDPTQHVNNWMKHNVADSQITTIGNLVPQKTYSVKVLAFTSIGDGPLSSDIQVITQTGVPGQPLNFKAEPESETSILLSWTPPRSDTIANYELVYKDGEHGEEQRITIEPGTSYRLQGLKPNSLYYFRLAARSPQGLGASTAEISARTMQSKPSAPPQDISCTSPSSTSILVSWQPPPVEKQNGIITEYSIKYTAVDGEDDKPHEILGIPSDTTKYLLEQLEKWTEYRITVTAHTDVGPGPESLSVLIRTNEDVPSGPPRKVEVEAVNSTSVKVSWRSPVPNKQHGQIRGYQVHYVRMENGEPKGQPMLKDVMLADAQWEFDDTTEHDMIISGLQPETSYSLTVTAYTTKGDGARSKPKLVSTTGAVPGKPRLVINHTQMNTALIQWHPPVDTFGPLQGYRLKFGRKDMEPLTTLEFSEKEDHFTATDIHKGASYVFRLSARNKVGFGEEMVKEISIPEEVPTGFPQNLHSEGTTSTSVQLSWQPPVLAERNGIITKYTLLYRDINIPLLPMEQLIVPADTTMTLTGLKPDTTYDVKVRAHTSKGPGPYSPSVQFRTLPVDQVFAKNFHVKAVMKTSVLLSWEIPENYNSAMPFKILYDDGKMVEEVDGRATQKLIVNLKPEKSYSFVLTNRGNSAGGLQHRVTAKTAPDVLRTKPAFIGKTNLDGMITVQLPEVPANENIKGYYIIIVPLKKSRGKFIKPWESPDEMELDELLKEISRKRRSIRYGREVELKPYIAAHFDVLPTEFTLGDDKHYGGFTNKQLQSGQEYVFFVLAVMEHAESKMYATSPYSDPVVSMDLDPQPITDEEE
# T2: PTPRD G203E K204E variant extracellular domain (human, UniProt P23468 21-1265)
# T2 construct: extracellular domain; also called G203E/K204E double mutant; IG2 mutant
# T2 sequence (looked up): T1 sequence (looked up) with G183E, K184E
# T3: AXL extracellular domain (human, UniProt P30530 26-451)
# T3 construct: extracellular domain; Biotinylated ectodomain on streptavidin sensors in BLI; streptavidin tetramer in the cell assay; also called UFO; tyrosine-protein kinase receptor AXL
# T3 sequence (looked up): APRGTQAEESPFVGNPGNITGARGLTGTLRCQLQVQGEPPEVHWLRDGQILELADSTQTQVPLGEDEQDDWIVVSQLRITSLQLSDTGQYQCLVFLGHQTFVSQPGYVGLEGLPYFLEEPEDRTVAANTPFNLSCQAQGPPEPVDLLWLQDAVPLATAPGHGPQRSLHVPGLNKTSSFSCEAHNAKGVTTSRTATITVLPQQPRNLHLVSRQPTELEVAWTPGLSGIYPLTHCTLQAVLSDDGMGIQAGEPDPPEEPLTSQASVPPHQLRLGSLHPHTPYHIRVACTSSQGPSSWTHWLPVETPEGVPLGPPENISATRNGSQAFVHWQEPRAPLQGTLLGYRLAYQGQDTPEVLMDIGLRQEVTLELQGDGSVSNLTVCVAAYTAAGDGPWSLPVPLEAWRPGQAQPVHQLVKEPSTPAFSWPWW
# T4: PD-L2 extracellular domain (human, UniProt Q9BQ51 20-220)
# T4 construct: extracellular domain; ECD construct; also called PDCD1LG2; programmed cell death 1 ligand 2
# T4 sequence (looked up): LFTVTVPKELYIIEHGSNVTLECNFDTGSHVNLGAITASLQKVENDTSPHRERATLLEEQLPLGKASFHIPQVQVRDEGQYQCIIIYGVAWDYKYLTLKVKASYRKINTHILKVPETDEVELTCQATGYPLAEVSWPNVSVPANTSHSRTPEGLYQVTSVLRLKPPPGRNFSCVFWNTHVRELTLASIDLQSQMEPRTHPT
# B1: LRFN4 extracellular domain (receptor, human, UniProt Q6PJG9 17-518, looked up)
# chain: CPLPCVCQNLSESLSTLCAHRGLLFVPPNVDRRTVELRLADNFIQALGPPDFRNMTGLVDLTLSRNAITRIGARAFGDLESLRSLHLDGNRLVELGTGSLRGPVNLQHLILSGNQLGRIAPGAFDDFLESLEDLDLSYNNLRQVPWAGIGAMPALHTLNLDHNLIDALPPGAFAQLGQLSRLDLTSNRLATLAPDPLFSRGRDAEASPAPLVLSFSGNPLHCNCELLWLRRLARPDDLETCASPPGLAGRYFWAVPEGEFSCEPPLIARHTQRLWVLEGQRATLRCRALGDPAPTMHWVGPDDRLVGNSSRARAFPNGTLEIGVTGAGDAGGYTCIATNPAGEATARVELRVLALPHGGNSSAEGGRPGPSDIAASARTAAEGEGTLESEPAVQVTEVTATSGLVSWGPGRPADPVWMFQIQYNSSEDETLIYRIVPASSHHFLLKHLVPGADYDLCLLALSPAAGPSDLTATRLLGCAHFSTLPASPLCHALQAHVLGGTL
# notes: extracellular domain; ECD-Fc; also called LFRN4
# B2: IL1RL1 extracellular domain (receptor, human, UniProt Q01638 19-328, looked up)
# chain: KFSKQSWGLENEALIVRCPRQGKPSYTVDWYYSQTNKSIPTQERNRVFASGQLLKFLPAAVADSGIYTCIVRSPTFNRTGYANVTIYKKQSDCNVPDYLMYSTVSGSEKNSKIYCPTIDLYNWTAPLEWFKNCQALQGSRYRAHKSFLVIDNVMTEDAGDYTCKFIHNENGANYSVTATRSFTVKDEQGFSLFPVIGAPAQNEIKEVEIGKNANLTCSACFGKGTQFLAAVLWQLNGTKITDFGEPRIQQEEGQNQSFSNGLACLDMVLRIADVKEEDLLLQYDCLALNLHGLRRHTVRLSRKNPIDHHS
# notes: extracellular domain; Soluble analyte in BLI
# B3: TNFRS11A_DNA742118 (receptor, human, UniProt Q9Y6Q6 30-212, looked up)
# extracellular domain construct of the screen: IAPPCTSEKHYEHLGRCCNKCEPGKYMSSKCTTTSDSVCLPCGPDEYLDSWNEEDKCLLHKVCDTGKALVAVVAGNSTTPRRCACTAGYHWSQDCECCRRNTECAPGLGAQHPLQLNKDTVCKPCLAGYFSDAFSSTDKCRPWTNCTFLGKRVEHHGTEKSDAVCSSSLPARKPPNEPHVYLP
# notes: extracellular domain; also called TNFRSF11A
# B4: CHL1 extracellular domain (receptor, human, UniProt O00533 25-1082, looked up)
# chain: IEIPSSVQQVPTIIKQSKVQVAFPFDEYFQIECEAKGNPEPTFSWTKDGNPFYFTDHRIIPSNNSGTFRIPNEGHISHFQGKYRCFASNKLGIAMSEEIEFIVPSVPKFPKEKIDPLEVEEGDPIVLPCNPPKGLPPLHIYWMNIELEHIEQDERVYMSQKGDLYFANVEEKDSRNDYCCFAAFPRLRTIVQKMPMKLTVNSSNSIKQRKPKLLLPPTESGSESSITILKGEILLLECFAEGLPTPQVDWNKIGGDLPKGRETKENYGKTLKIENVSYQDKGNYRCTASNFLGTATHDFHVIVEEPPRWTKKPQSAVYSTGSNGILLCEAEGEPQPTIKWRVNGSPVDNHPFAGDVVFPREISFTNLQPNHTAVYQCEASNVHGTILANANIDVVDVRPLIQTKDGENYATVVGYSAFLHCEFFASPEAVVSWQKVEEVKPLEGRRYHIYENGTLQINRTTEEDAGSYSCWVENAIGKTAVTANLDIRNATKLRVSPKNPRIPKLHMLELHCESKCDSHLKHSLKLSWSKDGEAFEINGTEDGRIIIDGANLTISNVTLEDQGIYCCSAHTALDSAADITQVTVLDVPDPPENLHLSERQNRSVRLTWEAGADHNSNISEYIVEFEGNKEEPGRWEELTRVQGKKTTVILPLAPFVRYQFRVIAVNEVGRSQPSQPSDHHETPPAAPDRNPQNIRVQASQPKEMIIKWEPLKSMEQNGPGLEYRVTWKPQGAPVEWEEETVTNHTLRVMTPAVYAPYDVKVQAINQLGSGPDPQSVTLYSGEDYPDTAPVIHGVDVINSTLVKVTWSTVPKDRVHGRLKGYQINWWKTKSLLDGRTHPKEVNILRFSGQRNSGMVPSLDAFSEFHLTVLAYNSKGAGPESEPYIFQTPEGVPEQPTFLKVIKVDKDTATLSWGLPKKLNGNLTGYLLQYQIINDTYEIGELNDINITTPSKPSWHLSNLNATTKYKFYLRACTSQGCGKPITEESSTLGEGSKGIGKISGVNLTQKTHPIEVFEPGAEHIVRLMTKNWGDNDSIFQDVIETRGREYAGLYDDISTQGW
# notes: extracellular domain; Soluble query (streptavidin tetramer) in cell assays; recombinant protein (R&D) in SPR; also called neural cell adhesion molecule L1-like protein; close homolog of L1
# Key:
# [1] = target: T1, PTPRD extracellular domain (wild type); experiment: SPR, LRFN4 ECD-Fc immobilized, PTPRD ectodomain-Fc as analyte
# Protocol: The indicated protein (expressed as an ECD-Fc fusion protein) was immobilized on a sensor chip and PTPRD (expressed as an ectodomain fused to an Fc tag) was injected at the indicated concentrations.
# [2] = target: T2, PTPRD G203E K204E variant extracellular …; experiment: extracellular interaction screen: pentameric PTPRD variant ECD on ECD-Fc prey (FIG. 5L)
# AXL extracellular domain = target: T3, AXL extracellular domain; experiment: biolayer interferometry, biotinylated AXL ectodomain on streptavidin sensors, IL1RL1 ectodomain in solution
# Protocol: Interactions between AXL and the binding partners IL1RL1 and Gas6 were assayed by biolayer interferometry using an Octet Red system, as previously described (Husain et al., Mol Cell Proteomics, 18: 2310-2323, 2019). […] Data were analyzed using Forte Pall (Port Washington, N.Y.) software 9.0.
# [3] = target: T4, PD-L2 extracellular domain; experiment: extracellular interaction screen, normalized intensity; labelled dot against the clone named on the axis; which is query and which prey is not given; colour of the predicted class lost
# L1CAM expressed on cells = target: T5, L1CAM expressed on cells (human, UniProt P32004 20-1257); experiment: cell surface interaction assay: streptavidin-tetramerized biotinylated ECD on transfected cells, immunofluorescence
# T5 construct: whole, on cells; also called L1 cell adhesion molecule
# Description: FIG. 3H is a schematic showing the design of the cell surface interaction assay.
# T5 sequence (P32004 20-1257): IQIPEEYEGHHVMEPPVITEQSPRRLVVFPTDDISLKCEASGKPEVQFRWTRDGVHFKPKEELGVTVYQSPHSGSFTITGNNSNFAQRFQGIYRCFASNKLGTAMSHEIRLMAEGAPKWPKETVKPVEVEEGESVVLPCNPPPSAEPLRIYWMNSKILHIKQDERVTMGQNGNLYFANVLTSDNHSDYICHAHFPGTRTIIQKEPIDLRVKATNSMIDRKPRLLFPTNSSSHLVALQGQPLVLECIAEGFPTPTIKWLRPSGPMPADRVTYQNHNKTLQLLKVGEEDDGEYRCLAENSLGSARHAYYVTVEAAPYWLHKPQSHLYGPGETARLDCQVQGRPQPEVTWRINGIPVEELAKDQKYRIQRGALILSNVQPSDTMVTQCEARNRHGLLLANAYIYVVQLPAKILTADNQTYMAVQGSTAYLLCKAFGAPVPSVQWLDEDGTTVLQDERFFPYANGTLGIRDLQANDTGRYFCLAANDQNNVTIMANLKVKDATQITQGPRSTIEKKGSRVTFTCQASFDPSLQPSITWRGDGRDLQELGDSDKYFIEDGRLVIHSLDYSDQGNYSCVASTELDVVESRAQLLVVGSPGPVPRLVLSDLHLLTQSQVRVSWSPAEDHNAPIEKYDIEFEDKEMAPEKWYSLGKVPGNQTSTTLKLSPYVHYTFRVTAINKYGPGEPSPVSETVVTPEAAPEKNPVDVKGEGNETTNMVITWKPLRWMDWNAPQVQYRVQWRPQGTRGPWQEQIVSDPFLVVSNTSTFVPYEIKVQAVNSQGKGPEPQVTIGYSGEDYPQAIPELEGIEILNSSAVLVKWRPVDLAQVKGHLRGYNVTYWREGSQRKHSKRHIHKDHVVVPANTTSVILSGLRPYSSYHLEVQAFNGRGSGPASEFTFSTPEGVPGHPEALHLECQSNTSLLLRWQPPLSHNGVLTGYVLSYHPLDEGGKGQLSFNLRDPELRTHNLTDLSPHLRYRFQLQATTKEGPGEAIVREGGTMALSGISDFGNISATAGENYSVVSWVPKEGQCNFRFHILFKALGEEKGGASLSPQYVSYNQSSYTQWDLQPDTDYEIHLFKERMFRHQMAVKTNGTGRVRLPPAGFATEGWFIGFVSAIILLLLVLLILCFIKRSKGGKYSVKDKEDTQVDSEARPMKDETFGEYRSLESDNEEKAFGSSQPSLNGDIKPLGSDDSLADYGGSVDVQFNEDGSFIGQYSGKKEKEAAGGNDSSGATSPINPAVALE
binder,measurement,setting,value
B1,binding result,[1],binds
same,binding result,[2],no binding
B2,binding result,AXL extracellular domain,binds
B3,binding result,[3],binds
B4,binding result,L1CAM expressed on cells,binds
